Assay results taken from publication PMC7142922.

Molecular target: T1, TyrR (Escherichia coli DH5alpha) (UniProt P07604)
T1 sequence: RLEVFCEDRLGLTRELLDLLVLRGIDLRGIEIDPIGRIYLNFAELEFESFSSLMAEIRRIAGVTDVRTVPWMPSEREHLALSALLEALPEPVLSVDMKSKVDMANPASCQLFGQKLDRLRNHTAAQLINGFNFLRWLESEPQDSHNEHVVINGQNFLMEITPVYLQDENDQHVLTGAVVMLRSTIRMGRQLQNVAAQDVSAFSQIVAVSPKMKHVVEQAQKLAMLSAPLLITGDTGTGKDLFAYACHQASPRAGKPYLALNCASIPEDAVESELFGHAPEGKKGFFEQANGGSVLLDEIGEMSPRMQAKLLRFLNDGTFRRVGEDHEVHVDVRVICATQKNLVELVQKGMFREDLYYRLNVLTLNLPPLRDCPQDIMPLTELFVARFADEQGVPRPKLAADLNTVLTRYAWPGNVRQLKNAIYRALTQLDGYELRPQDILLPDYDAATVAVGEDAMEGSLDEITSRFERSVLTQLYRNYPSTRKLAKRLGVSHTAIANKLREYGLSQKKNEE
Assay: EMSA
Details: TyrR EMSA: 50 mM Tris-HCl pH 7.8, 50 mM NaCl, 3 mM Mg acetate, 0.1 mM EDTA, 0.1 mM DTT, 25 ug/mL BSA, 0.1 mM Phe, 0.1 mM ATP, ~15 nM DNA, 37 C 30 min, 2% …

With “CTGCAGCACTATCACTCTTTTGTCTTGGTAAGAATAATGGTATGTGACTGCGAATGCACCTGCTTTGTGCAGGGGTGATGACGAGTTGCGTAAAAAGAAAGCACTTGTAAACCCTTTTAGCATTACTCACTTTATTTTGCATAGCATGTGATGTGCGGAGAAATCTTAGCAGTGAGCAGACCAATAAATAGAATATTCAGAACGGTGTTATTTTATTGACATCGTCAGCGGGGGAGGCGTTTAATTTATATTCGGATGTCGTAAAGCTTAA (double strand) [deltaTB fragment without TyrR boxes (274 bp)]” the binding was “no binding”.
